Patent US20160145321A1

Tests used:
Test in all cases: cell-based or functional assay
[1] = target: G protein of RSV A/A2 (virus, ATCC Cat. No. VR-1540) (Respiratory syncytial virus A/A2) (UniProt P03423)
[2] = target: G protein of RSV A/Long (virus, ATCC Cat. No. VR-26) (Respiratory syncytial virus A/Long) (UniProt P20895)
[3] = target: G protein of RSV B/18537 (virus, ATCC Cat. No. VR-1580) (Respiratory syncytial virus B/18537) (UniProt P20896)

CR9514 (an antibody based on 3D3, comprising the heavy and light chain variable region of 3D3)
Neutralization IC50 (plaque reduction assay, Vero cells) [1]: 0.0407 µg/mL
Neutralization IC50 (plaque reduction assay, Vero cells) [2]: 0.017 µg/mL
Neutralization IC50 (plaque reduction assay, Vero cells) [3]: 0.033 µg/mL
